Experimental data from US20150175710A1 (DEVELOPMENT CENTER FOR BIOTECHNOLOGY, published 2015).

How the values were obtained:
[1] = target: T1, human ENO1 mutant G302 to alanine (human, UniProt P06733 1-434); assay: ELISA, mutant ENO1 coated, EN10 mAb 2-fold serial dilution, four parameter logistic fit
T1 construct: Expressed in E. coli; also called A302; not shown: His tag (Ni-agarose purified)

[2] = target: T2, human ENO1 mutant E334 to alanine (human, UniProt P06733 1-434); assay: as above
T2 construct: Expressed in E. coli; also called A334; not shown: His tag (Ni-agarose purified)

[3] = target: T3, human ENO1 mutant K335 to alanine (human, UniProt P06733 1-434); assay: as above
T3 construct: Expressed in E. coli; also called A335; not shown: His tag (Ni-agarose purified)

[4] = target: T4, human ENO1 mutant K306 to alanine (human, UniProt P06733 1-434); assay: as above
T4 construct: Expressed in E. coli; also called A306; not shown: His tag (Ni-agarose purified)

[5] = target: T5, human ENO1 mutant K326 to alanine (human, UniProt P06733 1-434); assay: as above
T5 construct: Expressed in E. coli; also called A326; not shown: His tag (Ni-agarose purified)

[6] = target: T6, human ENO1 mutant D300 to alanine (human, UniProt P06733 1-434); assay: as above
T6 construct: Expressed in E. coli; also called A300; not shown: His tag (Ni-agarose purified)

[7] = target: T7, human ENO1 mutant Q305 to alanine (human, UniProt P06733 1-434); assay: as above
T7 construct: Expressed in E. coli; also called A305; not shown: His tag (Ni-agarose purified)

[8] = target: T8, human ENO1 mutant A309 to glycine (human, UniProt P06733 1-434); assay: as above
T8 construct: Expressed in E. coli; not shown: His tag (Ni-agarose purified)

[9] = target: T9, human ENO1 mutant N333 to alanine (human, UniProt P06733 1-434); assay: as above
T9 construct: Expressed in E. coli; also called A333; not shown: His tag (Ni-agarose purified)

[10] = target: T10, human ENO1 protein (wild type) (human, UniProt P06733 1-434); assay: ELISA, ENO1 coated, EN10 mAb 2-fold serial dilution, four parameter logistic fit
T10 construct: Coated on ELISA plates; also called alpha-Enolase; enolase-1; not shown: source of the protein in Exampl

[11] = target: T10, human ENO1 protein (wild type); assay: ELISA, 400 ng human ENO1 coated, antibody serial dilution, four parameter logistic fit

T10 sequence (P06733 whole entry): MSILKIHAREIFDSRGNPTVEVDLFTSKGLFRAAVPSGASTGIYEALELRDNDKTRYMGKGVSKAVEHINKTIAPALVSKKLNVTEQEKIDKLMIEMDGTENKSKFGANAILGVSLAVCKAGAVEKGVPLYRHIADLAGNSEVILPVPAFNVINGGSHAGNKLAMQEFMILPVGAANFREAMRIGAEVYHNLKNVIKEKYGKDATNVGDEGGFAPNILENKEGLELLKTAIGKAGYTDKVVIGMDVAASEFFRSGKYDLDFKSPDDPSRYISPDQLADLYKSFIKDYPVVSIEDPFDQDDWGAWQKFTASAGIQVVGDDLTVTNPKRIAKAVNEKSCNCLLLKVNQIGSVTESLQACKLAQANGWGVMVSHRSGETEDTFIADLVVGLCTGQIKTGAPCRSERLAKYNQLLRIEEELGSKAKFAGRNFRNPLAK
T6 sequence (P06733 other isoform, or with tags, fused parts or gaps mutant limits assumed): as the sequence (P06733 whole entry) above, with D300A counted along it
T3 sequence (P06733 other isoform, or with tags, fused parts or gaps mutant limits assumed): as the sequence (P06733 whole entry) above, with K335A counted along it
T8 sequence (P06733 other isoform, or with tags, fused parts or gaps mutant limits assumed): as the sequence (P06733 whole entry) above, with A309G counted along it
T2 sequence (P06733 other isoform, or with tags, fused parts or gaps mutant limits assumed): as the sequence (P06733 whole entry) above, with E334A counted along it
T5 sequence (P06733 other isoform, or with tags, fused parts or gaps mutant limits assumed): as the sequence (P06733 whole entry) above, with K326A counted along it
T1 sequence (P06733 other isoform, or with tags, fused parts or gaps mutant limits assumed): as the sequence (P06733 whole entry) above, with G302A counted along it
T4 sequence (P06733 other isoform, or with tags, fused parts or gaps mutant limits assumed): as the sequence (P06733 whole entry) above, with K306A counted along it
T7 sequence (P06733 other isoform, or with tags, fused parts or gaps mutant limits assumed): as the sequence (P06733 whole entry) above, with Q305A counted along it
T9 sequence (P06733 other isoform, or with tags, fused parts or gaps mutant limits assumed): as the sequence (P06733 whole entry) above, with N333A counted along it

Kd [1]: 0.345 nM
Kd [2]: 107 nM
Kd [3]: 9.57 nM
Kd [4]: 0.465 nM
Kd [5]: 0.787 nM
Kd [6]: 63.3 nM
Kd [7]: 0.331 nM
Kd [8]: 5.63 nM
Kd [9]: 0.413 nM
Kd [10]: 0.443 nM
Kd [11]: 0.203 nM
B1: anti-human ENO1 antibody EN10 mAb (antibody, V domains shown)
VH: EVQLQQSGPELVKPGASVKMSCKASGYTFTSCVMNWVKQKPGQGLEWIGYINPYNDGTKYNEKFKGKATLTSDKSSSTAYMELSSLTSEDSAVYYCAREGFYYGNFDNWGQGTTLTVSS
VL: DIQMTQSPASLSASVGETVTITCRASENIYSYLTWYQQKQGKSPQLLVYNAKTLPEGVPSRFSGSGSGTQFSLKINSLQPEDFGSYYCQHHYGTPYTFGGGTKLEITR
